In patent US20140206849A1 (Alexion, published 2014) one finds Kd, koff and kon data, which are given here for 2 molecules.

Test [1] addresses T1, human C5a (human, UniProt P01031 678-751).
T1 sequence (looked up): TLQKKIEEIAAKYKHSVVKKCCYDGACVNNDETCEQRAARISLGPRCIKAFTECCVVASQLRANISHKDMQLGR
Description: SPR (Biacore), 'under similar conditions' to the humanized antibody; murine antibody. (SPR reads the build-up and loss of mass on a sensor chip optically.)

Test [2] addresses T1, human C5a. Description: SPR (Biacore), antibody captured by anti-human Fc on CM5 chip, human C5a 0.6-5.9 nM in solution, 1:1 Langmuir fit; humanized antibody. From the text: The humanized antibody was subjected to BIAcore analysis to quantify its affinity for human C5a, in part, to determine if humanization affected the binding affinity of the antibody for its antigen. See, e.g., Karlsson and Larsson (2004) Methods Mol Biol 248:389-415. Briefly, the humanized antibody was screened with 3-4 concentrations of human C5a (antigen) using a capture technique. The antibody was captured by an anti-Fc (human) antibody directly immobilized on a CM5 sensor chip with various concentrations in the range from 0.6 nM to 5.9 nM of human C5a passed over the sensor chip surface. The surface was regenerated with 20 mM HCl, 0.02% P20 after each cycle to remove bound antibody and antigen. The data were evaluated using Biacore BIAevaluation software using a 1:1 Langmuir Model Fit (Rmax:Global Fit; RI:Local Fit). Kinetics information such as kₐ (Association Rate constant), kd (Dissociation Rate constant), and KD (Equillibrium Dissociation constant) was obtained from the fit. […] Methods for testing the humanized antibody for reduced immunogenicity in a human, as compared to the donor antibody, are known in the art and described herein.

B1: murine anti-human C5a antibody (antibody, V domains shown)
VH: EVQLQQSGPELVKPGSSVKISCKASGYTFTDYSMDWVKQSHGKSLEWIGAINPNSGGTNYSQKFKDKATLTVDKSSSTAYMELRSLTSEDSAVYYCASSGSYDGYYAMDYWGQGTSVTVSS
VL: DIVMTQSPASLAVSLGQRATISCRASESVDSYGNSFMHWYQQKPGQPPKLLIYRASNLESGIPARFSGSGSRTDFTLTINPVEADDVATYYCQQSNEDPYTFGGGTKLEIKR
notes: also called murine anti-C5a antibody; murine anti-C5a antibody counterpart
For B1, in the test with human C5a [1], the Kd (in general, the free concentration of one partner at which half of the binding sites on the other are occupied at equilibrium, for simple one-to-one binding) was approximately 0.512 nM; the koff (as a rule, a measure of how fast the partners let go of each other) was approximately 0.00141 s⁻¹; the kon – broadly, the rate constant with which the complex forms – was approximately 2.76e+06 M⁻¹ s⁻¹.

B2: humanized anti-human C5a antibody (antibody, V domains shown)
VH: QVQLVQSGAEVKKPGASVKVSCKASGYTFTDYSMDWVRQAPGQGLEWMGAINPNSGGTNYNQKFKDRVTMTRDTSTSTVYMELSSLRSEDTAVYYCARSGSYDGYYAMDYWGQGTTVTVSS
VL: DIQMTQSPSSLSASVGDRVTITCRASESVDSYGNSFMHWYQQKPGKAPKLLIYRASNLESGVPSRFSGSGSGTDFTLTISSLQPEDFATYYCQQSNEDPYTFGGGTKVEIK
notes: also called humanized anti-C5a antibody; the humanized antibody
For the molecule B2, in the test with human C5a [2], the Kd was approximately 0.298 nM, the koff was approximately 0.000576 s⁻¹ and the kon is approximately 1.93e+06 M⁻¹ s⁻¹.
